Source: PMC8369199

What was measured:
[1] = biological target: MMP-9 cleaved TRZ-Fc4 (human); test: BLI; antibody variant on anti-human Fab-CH1 (Fab2G) sensors; FcγRI 6.25, 12.5, 25, 50 nM, then dissociation in kinetics buffer; 1:1 Langmuir model
trastuzumab (human) = test: as above
[2] = biological target: human complement C1q (human) (UniProt P02745); test: BLI
[3] = biological target: FcγRIIIa V158 (high-affinity variant of FcγRIIIa) on engineered ADCC reporter effector cells

Chain of His-tagged human Fc gamma RI (CD64) (P12314 16-292): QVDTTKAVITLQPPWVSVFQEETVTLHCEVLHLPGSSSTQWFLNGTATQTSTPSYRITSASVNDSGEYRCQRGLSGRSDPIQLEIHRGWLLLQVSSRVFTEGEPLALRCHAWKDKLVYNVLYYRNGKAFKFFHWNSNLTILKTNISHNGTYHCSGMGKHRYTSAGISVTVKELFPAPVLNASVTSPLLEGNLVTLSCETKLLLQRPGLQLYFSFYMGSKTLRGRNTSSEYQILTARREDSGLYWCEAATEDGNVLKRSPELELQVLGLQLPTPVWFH
Chain of human complement C1q (human) (P02745 23-245, chain 1 of 3): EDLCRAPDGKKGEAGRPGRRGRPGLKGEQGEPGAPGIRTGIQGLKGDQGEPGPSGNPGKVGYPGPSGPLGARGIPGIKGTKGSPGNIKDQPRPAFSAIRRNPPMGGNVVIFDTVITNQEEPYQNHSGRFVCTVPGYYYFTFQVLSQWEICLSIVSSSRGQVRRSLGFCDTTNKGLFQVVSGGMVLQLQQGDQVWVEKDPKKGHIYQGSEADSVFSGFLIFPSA
Chain of human complement C1q (human) (P02746 28-253, chain 2 of 3, further chain): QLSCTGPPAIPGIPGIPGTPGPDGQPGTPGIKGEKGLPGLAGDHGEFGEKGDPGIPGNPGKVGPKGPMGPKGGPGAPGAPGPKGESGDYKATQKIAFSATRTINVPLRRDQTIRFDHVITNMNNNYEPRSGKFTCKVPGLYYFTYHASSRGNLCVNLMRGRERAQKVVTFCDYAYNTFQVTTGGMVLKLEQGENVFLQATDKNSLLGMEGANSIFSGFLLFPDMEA
Chain of human complement C1q (human) (P02747 29-245, chain 3 of 3, further chain): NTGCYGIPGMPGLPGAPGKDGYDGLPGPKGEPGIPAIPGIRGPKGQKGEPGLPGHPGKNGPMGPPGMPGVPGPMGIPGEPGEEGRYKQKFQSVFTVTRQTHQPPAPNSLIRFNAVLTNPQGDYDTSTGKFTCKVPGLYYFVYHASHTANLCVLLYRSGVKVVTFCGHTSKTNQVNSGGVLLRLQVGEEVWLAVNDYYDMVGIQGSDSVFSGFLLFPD

His-tagged human Fc gamma RI (CD64) (from UniProt P12314 16-292) (receptor)
Kd [1]: 1.6 nM | Kd (trastuzumab (human)): 1.3 nM

trastuzumab
Kd [2]: 209 nM

trastuzumab (antibody)
ADCC reporter assay, fold induction, SK-BR-3 target cells, with MMP-2/MMP-9 inhibitor, antibody 10 fM to 100 nM; highest induction, reached at 1 nM (fold induction) [3]: 57.6 | EC50 of ADCC reporter induction, SK-BR-3 target cells [3]: 0.039 nM
